Assay results published in patent EP1947117A2.

How the values were obtained:
[1] = molecular target: porcine TSH receptor (solubilized porcine thyroid membranes) (porcine) (UniProt Q8SPP9); assay: competitive displacement of 125I-bTSH from solubilized porcine thyroid membranes
[2] = molecular target: hCG receptor on MA-10 cells (transformed murine Leydig cells) (murine) (UniProt P30730); assay: cell-based or functional assay
[3] = molecular target: hCG receptor on MA-10 cells (transformed murine Leydig cells) (murine) (UniProt P30730); assay: 125I-hCG receptor binding assay on MA-10 cells (Fig. 3b)
[4] = molecular target: human TSH receptor on CHO cells (CHO-hTSHR clone JP09) (human) (UniProt P16473); assay: cell-based or functional assay
[5] = molecular target: rat TSH receptor on FRTL-5 cells (rat) (UniProt P21463); assay: cell-based or functional assay
Chain of rat TSH receptor on FRTL-5 cells (rat) (P21463 22-764): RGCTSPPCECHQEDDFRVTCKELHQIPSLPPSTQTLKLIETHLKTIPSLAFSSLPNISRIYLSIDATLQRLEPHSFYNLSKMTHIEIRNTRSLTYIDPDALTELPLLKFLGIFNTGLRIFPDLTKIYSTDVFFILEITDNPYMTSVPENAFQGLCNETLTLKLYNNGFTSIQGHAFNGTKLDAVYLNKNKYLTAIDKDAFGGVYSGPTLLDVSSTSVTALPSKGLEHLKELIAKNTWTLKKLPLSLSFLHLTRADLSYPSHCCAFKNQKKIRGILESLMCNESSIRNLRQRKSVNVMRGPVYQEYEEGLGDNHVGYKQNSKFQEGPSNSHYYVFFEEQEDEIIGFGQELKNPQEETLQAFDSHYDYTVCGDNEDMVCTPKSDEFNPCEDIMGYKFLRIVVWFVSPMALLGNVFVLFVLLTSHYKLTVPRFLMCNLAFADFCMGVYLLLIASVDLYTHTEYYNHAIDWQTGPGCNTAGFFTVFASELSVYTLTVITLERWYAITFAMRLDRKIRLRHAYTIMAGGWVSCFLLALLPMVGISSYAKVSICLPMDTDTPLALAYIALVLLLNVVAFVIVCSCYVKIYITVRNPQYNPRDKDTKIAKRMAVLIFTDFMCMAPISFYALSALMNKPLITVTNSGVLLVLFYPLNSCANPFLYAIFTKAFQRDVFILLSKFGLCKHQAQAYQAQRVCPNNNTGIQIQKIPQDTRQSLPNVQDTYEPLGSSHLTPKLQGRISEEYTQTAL

[6] = molecular target: porcine TSH receptor (solubilized porcine thyroid membranes) (porcine) (UniProt Q8SPP9); assay: competitive binding assay to porcine thyroid membranes

Chain of hCG receptor on MA-10 cells (transformed murine Leydig cells) (murine) (P30730 27-700): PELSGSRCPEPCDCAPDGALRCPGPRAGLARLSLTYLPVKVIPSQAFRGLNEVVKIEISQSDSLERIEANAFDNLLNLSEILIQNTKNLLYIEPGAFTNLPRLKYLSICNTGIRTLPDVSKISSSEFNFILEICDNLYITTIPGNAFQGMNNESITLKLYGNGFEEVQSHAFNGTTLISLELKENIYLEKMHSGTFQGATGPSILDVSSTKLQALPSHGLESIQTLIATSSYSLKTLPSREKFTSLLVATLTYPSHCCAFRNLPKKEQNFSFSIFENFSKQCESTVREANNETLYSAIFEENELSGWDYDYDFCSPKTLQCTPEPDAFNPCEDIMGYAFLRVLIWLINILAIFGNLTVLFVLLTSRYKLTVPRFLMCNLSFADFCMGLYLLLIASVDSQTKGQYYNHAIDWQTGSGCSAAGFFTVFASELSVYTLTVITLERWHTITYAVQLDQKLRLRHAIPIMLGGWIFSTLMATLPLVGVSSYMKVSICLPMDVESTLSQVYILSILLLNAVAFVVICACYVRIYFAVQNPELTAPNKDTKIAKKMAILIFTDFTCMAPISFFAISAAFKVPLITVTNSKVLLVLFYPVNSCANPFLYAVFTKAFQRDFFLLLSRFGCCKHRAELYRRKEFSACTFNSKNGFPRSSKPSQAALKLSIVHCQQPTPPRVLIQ
Chain of porcine TSH receptor (solubilized porcine thyroid membranes) (porcine) (Q8SPP9 22-764): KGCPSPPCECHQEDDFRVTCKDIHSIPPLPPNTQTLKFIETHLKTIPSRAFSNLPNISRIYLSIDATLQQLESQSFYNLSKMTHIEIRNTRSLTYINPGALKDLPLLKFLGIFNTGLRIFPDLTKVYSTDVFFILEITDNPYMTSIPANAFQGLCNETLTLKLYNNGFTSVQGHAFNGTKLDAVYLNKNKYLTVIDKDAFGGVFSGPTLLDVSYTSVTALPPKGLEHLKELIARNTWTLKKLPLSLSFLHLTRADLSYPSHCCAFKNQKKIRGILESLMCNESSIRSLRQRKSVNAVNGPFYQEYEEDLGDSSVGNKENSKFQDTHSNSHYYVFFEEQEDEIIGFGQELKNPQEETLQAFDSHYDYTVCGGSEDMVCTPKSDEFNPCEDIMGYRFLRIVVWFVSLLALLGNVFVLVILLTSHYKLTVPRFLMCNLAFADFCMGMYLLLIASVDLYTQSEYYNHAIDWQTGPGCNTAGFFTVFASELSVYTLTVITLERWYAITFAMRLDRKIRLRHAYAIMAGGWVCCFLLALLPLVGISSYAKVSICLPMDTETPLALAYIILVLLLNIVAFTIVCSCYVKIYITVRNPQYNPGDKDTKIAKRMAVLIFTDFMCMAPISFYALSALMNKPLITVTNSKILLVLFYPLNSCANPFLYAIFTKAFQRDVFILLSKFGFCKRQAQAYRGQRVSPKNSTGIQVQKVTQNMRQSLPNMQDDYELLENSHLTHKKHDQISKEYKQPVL

Substance | EC25 of inhibition of 125I-bTSH binding [1] | Progesterone synthesis in MA 10 cells, EC50 [2] | Progesterone synthesis in MA 10 cells, Max [2] | cAMP stimulation in JP09 cells, EC50 [4] | cAMP stimulation in JP09 cells, relative potency (WT=1) [4] | further results
WT-hTSH (wild-type recombinant human thyroid stimulating hormone) (from UniProt P01215 25-116; P01222 21-132) (ligand) | 81.3 ng/mL | – | – | – | – | –
hCG mutant α-P16K / WT-hCGβ (from UniProt P01215 25-116; P0DN86 21-165) (ligand) | – | 2.05 ng/mL | 161% | – | – | stimulation of progesterone production in MA-10 cells, fold more active than WT-hCG [2]: 4 fold; fold more active than WT-hCG in receptor binding activity [3]: 4 fold
hCG mutant α-P16K+Q20K / WT-hCGβ (from UniProt P01215 25-116; P0DN86 21-165) (ligand) | – | 1.7 ng/mL | 212% | – | – | –
hCG mutant α-Q13K / WT-hCGβ (from UniProt P01215 25-116; P0DN86 21-165) (ligand) | – | 2.46 ng/mL | 115% | – | – | –
hCG mutant α-Q13K+P16K+Q20K / WT-hCGβ (from UniProt P01215 25-116; P0DN86 21-165) (ligand) | – | 1.58 ng/mL | 216% | – | – | –
hCG mutant α-Q13K+P16K+Q20K+E14K / WT-hCGβ (from UniProt P01215 25-116; P0DN86 21-165) (ligand) | – | 1.65 ng/mL | 205% | – | – | –
hCG mutant α-Q20K / WT-hCGβ (from UniProt P01215 25-116; P0DN86 21-165) (ligand) | – | 2.96 ng/mL | 134% | – | – | –
hCG mutant α-Q50P / WT-hCGβ (from UniProt P01215 25-116; P0DN86 21-165) (ligand) | – | 3.9 ng/mL | 137% | – | – | –
hCG mutant α-R67K / WT-hCGβ (from UniProt P01215 25-116; P0DN86 21-165) (ligand) | – | 4.6 ng/mL | 145% | – | – | –
hCG mutant α-T11K / WT-hCGβ (from UniProt P01215 25-116; P0DN86 21-165) (ligand) | – | 2.79 ng/mL | 156% | – | – | –
hTSH mutant WT α / TSHβ-L69R (from UniProt P01215 25-116; P01222 21-132) (ligand) | – | – | – | 2.75 ng/mL | 2.4 fold (WT=1) | –
hTSH mutant WT α / hTSHβ-E63R (from UniProt P01215 25-116; P01222 21-132) (ligand) | – | – | – | – | – | potency, fold increase over hTSH [4]: 2 to 4 fold; potency, fold increase over hTSH [5]: 2 to 4 fold
hTSH mutant WT α / hTSHβ-I58R (from UniProt P01215 25-116; P01222 21-132) (ligand) | – | – | – | – | – | potency, fold increase over hTSH [4]: 2 to 4 fold; potency, fold increase over hTSH [5]: 2 to 4 fold
hTSH mutant WT α / hTSHβ-I58R+E63R (from UniProt P01215 25-116; P01222 21-132) (ligand) | – | – | – | – | – | efficacy of cAMP stimulation in CHO-hTSH cells (Fig. 2g), fold increase [4]: 1.5 fold; potency of cAMP stimulation in CHO-hTSH cells (Fig. 2g), fold over wild type hTSH [4]: 15 fold
hTSH mutant WT α / hTSHβ-I58R+E63R+L69R (from UniProt P01215 25-116; P01222 21-132) (ligand) | – | – | – | – | – | efficacy of cAMP stimulation in CHO-hTSH cells (Fig. 2g), fold increase [4]: 1.7 fold; potency of cAMP stimulation in CHO-hTSH cells (Fig. 2g), fold increase [4]: 50 fold
hTSH mutant α-P16K / WT-hTSHβ (from UniProt P01215 25-116; P01222 21-132) (ligand) | 189 ng/mL | – | – | 1.05 ng/mL | 6.4 fold (WT=1) | fold greater affinity than WT [6]: 5 fold
hTSH mutant α-P16K+F17T / WT-hTSHβ (from UniProt P01215 25-116; P01222 21-132) (ligand) | – | – | – | 3.52 ng/mL | 1.9 fold (WT=1) | –
hTSH mutant α-P16K+Q20K / WT-hTSHβ (from UniProt P01215 25-116; P01222 21-132) (ligand) | 6.4 ng/mL | – | – | 0.37 ng/mL | 11.8 fold (WT=1) | –
hTSH mutant α-Q13K / WT-hTSHβ (from UniProt P01215 25-116; P01222 21-132) (ligand) | 22.5 ng/mL | – | – | 1.89 ng/mL | 3.5 fold (WT=1) | –
hTSH mutant α-Q13K+P16K+Q20K / TSHβ-L69R (from UniProt P01215 25-116; P01222 21-132) (ligand) | 1.8 ng/mL | – | – | 0.19 ng/mL | 35.3 fold (WT=1) | half-maximal stimulation of 3H-thymidine incorporation in FRTL-5 cells, fold lower concentration than WT-hTSH [5]: 27 fold
hTSH mutant α-Q13K+P16K+Q20K / WT-hTSHβ (from UniProt P01215 25-116; P01222 21-132) (ligand) | 2.3 ng/mL | – | – | 0.28 ng/mL | 23.9 fold (WT=1) | half-maximal stimulation of 3H-thymidine incorporation in FRTL-5 cells, fold lower concentration than WT-hTSH [5]: 18 fold
hTSH mutant α-Q13K+P16K+Q20K+E14K / TSHβ-L69R (from UniProt P01215 25-116; P01222 21-132) (ligand) | 1.3 ng/mL | – | – | 0.07 ng/mL | 95.7 fold (WT=1) | efficacy (maximal response) of cAMP stimulation, fold over WT-hTSH [4]: > 1.5 fold
hTSH mutant α-Q13K+P16K+Q20K+E14K / WT-hTSHβ (from UniProt P01215 25-116; P01222 21-132) (ligand) | 2.1 ng/mL | – | – | 0.17 ng/mL | 39.4 fold (WT=1) | efficacy (maximal response) of cAMP stimulation, fold over WT-hTSH [4]: > 1.5 fold
hTSH mutant α-Q20K / WT-hTSHβ (from UniProt P01215 25-116; P01222 21-132) (ligand) | 21.3 ng/mL | – | – | 1.16 ng/mL | 5.8 fold (WT=1) | –
hTSH mutant α-Q50P / WT-hTSHβ (from UniProt P01215 25-116; P01222 21-132) (ligand) | 77.5 ng/mL | – | – | 5.54 ng/mL | 1.2 fold (WT=1) | –
hTSH mutant α-R67K / WT-hTSHβ (from UniProt P01215 25-116; P01222 21-132) (ligand) | 62.5 ng/mL | – | – | 7.36 ng/mL | 0.9 fold (WT=1) | –
hTSH mutant α-T11K / WT-hTSHβ (from UniProt P01215 25-116; P01222 21-132) (ligand) | 68.3 ng/mL | – | – | 4.47 ng/mL | 1.5 fold (WT=1) | –
